From patent US20140228277A1 (Genentech, published 2014) come the findings set out here.

Experiment [1] has as its target T1, recombinant human BACE1 (rhBACE1) (human, UniProt P56817 22-457, limits assumed). As to the kind of experiment: spot phage ELISA, signal on BACE1 over signal on BSA. As to the method: After 4 rounds of binding selection, individual phage clones were analyzed in a high-throughput spot phage ELISA (Sidhu, S. S. et al. (2000) Methods Enzymol 328: 333-63) using plate-immobilized BACE1 as the target. The binding signal of the same phage particle to BSA was detected as non-specific binding noise. Clones with phage binding signal to target over 0.5 and signal/noise ratio>3 were considered to be positive clones and were subjected to DNA sequence analysis.

For experiment [2], the target named is T1, recombinant human BACE1 (rhBACE1). As to the kind of experiment: spot phage ELISA, plate-immobilized BACE1 against BSA.
The target is the same in experiment [3]. Kind of experiment: cell-based or functional assay.
The target is the same in experiment [4]. As to the kind of experiment: FP competition binding; 12 nM rhBACE1, competitor probe 5-TAMRA-BACE020. As for the experimental part: BACE1 binding assays were carried out in a final volume of 10 μL per well in black 384-well microplates (Proxiplate-Plus; Perkin Elmer, Waltham, Mass.). […] The reaction was permitted to proceed towards equilibrium for 2 h at ambient temperature prior to fluorescence polarization measurement using Envision (Perkin Elmer). The parallel and perpendicular fluorescent emissions measured in each well at 595 nm (excitation 531 nm polarized light) were used to determine the milli-polarization level (mP) using the following formula: mP=1000*(S−G*P)/(S+G*P) where S=parallel emission, P=perpendicular emission and G=0.65.
The affinities of BACE1 peptide ligands were measured using the abovementioned competition binding FP assay for determining IC₅₀ values with serially diluted peptides. A Caliper assay was used to measure the inhibition of BACE1 enzymatic activity by peptide ligands.

Positions of bridges follow the written chain, without caps; N, C: chain ends. Non-standard residues stand in square brackets, D forms with d. No end group written: not given here. Cit = NC(=O)NCCC[C@H](N)C(=O)O; Orn = NCCC[C@H](N)C(=O)O

T1 sequence (P56817 22-457 limits assumed): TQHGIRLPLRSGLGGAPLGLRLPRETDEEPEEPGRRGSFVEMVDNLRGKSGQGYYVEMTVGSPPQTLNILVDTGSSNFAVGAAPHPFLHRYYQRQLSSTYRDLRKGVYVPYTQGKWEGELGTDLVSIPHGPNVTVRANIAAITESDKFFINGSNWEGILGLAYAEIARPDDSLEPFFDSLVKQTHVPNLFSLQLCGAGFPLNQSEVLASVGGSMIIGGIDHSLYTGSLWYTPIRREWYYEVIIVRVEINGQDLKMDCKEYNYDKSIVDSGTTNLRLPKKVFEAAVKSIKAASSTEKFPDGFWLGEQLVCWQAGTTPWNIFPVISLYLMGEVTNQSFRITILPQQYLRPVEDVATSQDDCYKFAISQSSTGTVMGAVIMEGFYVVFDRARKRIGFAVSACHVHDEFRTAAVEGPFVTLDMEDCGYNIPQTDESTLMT

B1: phage-displayed peptide BACE018 (SEQ ID NO 14) (peptide)
chain: KEESIYCRLMGLGCG
notes: not shown: M13 major coat protein; peptide fused to its N-terminus
Regarding B1, the signal/noise ratio in experiment [1] is more than 20. Moreover, the “fold improvement of signal/noise ratio over parent BACE017” value (shortened to “fold improvement of signal/noise ratio”) in experiment [2] is more than 5 fold.

B2: phage-displayed peptide BACE021 (SEQ ID NO 17) (peptide)
chain: PEESLYCRLLALGCG
notes: as for B1
Take B2: in experiment [1], the signal/noise ratio is more than 20. Further, the “fold improvement of signal/noise ratio” value in experiment [2] was more than 5 fold.

B3: phage-displayed peptide BACE019 (SEQ ID NO 15) (peptide)
chain: NELSPYCRLMGLGCD
notes: as for B1
Consider B3, for which the signal/noise ratio in experiment [1] was more than 20. In addition, in experiment [2], the “fold improvement of signal/noise ratio” value was more than 5 fold.

B4: BACE059 (peptide)
peptide: Ac-ESMYC[Orn]LLGIGCG-NH2
modifications: disulfide 5-12 (inferred)
notes: also called BACE030 with Arg to ornithine
B4: the “Caliper (MCE) BACE1 activity assay IC50” value in experiment [3] was found to be 222 nM. For the same molecule, the IC50 in experiment [4] is 512 nM.

B5: BACE044 (peptide)
peptide: Ac-NEASMYCRLLGIGCG-NH2
modifications: disulfide 7-14 (inferred)
notes: also called BACE020 Glu3 to Ala
For B5, the “Caliper (MCE) BACE1 activity assay IC50” value in experiment [3] turned out to be 46 nM. The IC50 in experiment [4] came to 131 nM.

B6: BACE053 (peptide)
peptide: Ac-NEESMYCRLLGIACG-NH2
modifications: disulfide 7-14 (inferred)
notes: also called BACE020 Gly13 to Ala
Regarding B6, the “Caliper (MCE) BACE1 activity assay IC50” value in experiment [3] was found to be 7 nM. The IC50 in experiment [4] stood at 37 nM.

B7: BACE050 (peptide)
peptide: Ac-NEESMYCRLAGIGCG-NH2
modifications: disulfide 7-14 (inferred)
notes: also called BACE020 Leu10 to Ala
For the molecule B7, in experiment [3], the “Caliper (MCE) BACE1 activity assay IC50” value was determined as 49 nM. Further, the IC50 in experiment [4] was 186 nM.

B8: BACE052 (peptide)
peptide: Ac-NEESMYCRLLGAGCG-NH2
modifications: disulfide 7-14 (inferred)
notes: also called BACE020 Ile12 to Ala
In the case of B8, the “Caliper (MCE) BACE1 activity assay IC50” value in experiment [3] was found to be 14 nM. Moreover, the IC50 in experiment [4] came out at 39 nM.

B9: BACE055 (peptide)
peptide: Ac-NEESMFCRLLGIGCG-NH2
modifications: disulfide 7-14 (inferred)
notes: also called BACE020 Tyr6 to Phe
With B9, the “Caliper (MCE) BACE1 activity assay IC50” value in experiment [3] came out at 11 nM. Also, in experiment [4], the IC50 turned out to be 27 nM.

B10: BACE056 (peptide)
peptide: Ac-NEEHMYCRLLGIGCG-NH2
modifications: disulfide 7-14 (inferred)
notes: also called BACE020 Ser4 to His
On to B10, for which the “Caliper (MCE) BACE1 activity assay IC50” value in experiment [3] was 3580 nM. Further, the IC50 in experiment [4] was determined as 4500 nM.

B11: BACE047 (peptide)
peptide: Ac-NEESMACRLLGIGCG-NH2
modifications: disulfide 7-14 (inferred)
notes: also called BACE020 Tyr6 to Ala
As to B11, the “Caliper (MCE) BACE1 activity assay IC50” value in experiment [3] is 93 nM. Further, the IC50 in experiment [4] was 225 nM.

B12: BACE046 (peptide)
peptide: Ac-NEESAYCRLLGIGCG-NH2
modifications: disulfide 7-14 (inferred)
notes: also called BACE020 Met5 to Ala
For B12, in experiment [3], the “Caliper (MCE) BACE1 activity assay IC50” value was 435 nM. Further, the IC50 in experiment [4] is 1570 nM.

B13: BACE054 (peptide)
peptide: Ac-NEESMYCRLLGIGCA-NH2
modifications: disulfide 7-14 (inferred)
notes: also called BACE020 Gly15 to Ala
As for B13, in experiment [3], the “Caliper (MCE) BACE1 activity assay IC50” value is 7 nM. Further, the IC50 in experiment [4] worked out at 12 nM.

B14: BACE049 (peptide)
peptide: Ac-NEESMYCRALGIGCG-NH2
modifications: disulfide 7-14 (inferred)
notes: also called BACE020 Leu9 to Ala
For the molecule B14, the “Caliper (MCE) BACE1 activity assay IC50” value in experiment [3] came out at 1380 nM. Further, in experiment [4], the IC50 came to 7700 nM.

B15: BACE048 (peptide)
peptide: Ac-NEESMYCALLGIGCG-NH2
modifications: disulfide 7-14 (inferred)
notes: also called BACE020 Arg8 to Ala mutant
For B15, the “Caliper (MCE) BACE1 activity assay IC50” value in experiment [3] was more than 10000 nM. Moreover, the IC50 in experiment [4] was more than 10000 nM.

B16: BACE045 (peptide)
peptide: Ac-NEEAMYCRLLGIGCG-NH2
modifications: disulfide 7-14 (inferred)
notes: also called BACE020 Ser4 to Ala
As for B16, the “Caliper (MCE) BACE1 activity assay IC50” value in experiment [3] was 304 nM. Moreover, the IC50 in experiment [4] amounted to 2340 nM.

B17: BACE051 (peptide)
peptide: Ac-NEESMYCRLLAIGCG-NH2
modifications: disulfide 7-14 (inferred)
notes: also called BACE020 Gly11 to Ala
Take B17: the “Caliper (MCE) BACE1 activity assay IC50” value in experiment [3] was 18 nM. Also, in experiment [4], the IC50 came to 36 nM.

B18: BMS4 (peptide)
peptide: Ac-YPYFIPL-NH2
notes: also called Peptide 4 of Kornacker et al
For B18, in experiment [3], the “Caliper (MCE) BACE1 activity assay, EC50 (rate increased)” value (shortened to “Caliper … (rate increased)”) was 1760 nM. For the same molecule, in experiment [4], the IC50 is more than 10000 nM.

B19: BACE021 (peptide)
peptide: Ac-PEESLYCRLLALGCG-NH2
modifications: disulfide 7-14 (inferred)
notes: also called BACE-21
In the case of B19, in experiment [3], the “Caliper (MCE) BACE1 activity assay IC50” value is 17 nM and the “HTRF BACE1 activity assay IC50” value worked out at 22 nM. For the same molecule, the IC50 in experiment [4] amounted to 25 nM.

B20: BACE019 (peptide)
peptide: Ac-NELSPYCRLMGLGCD-NH2
modifications: disulfide 7-14 (inferred)
notes: also called BACE-19
As to B20, in experiment [3], the “Caliper (MCE) BACE1 activity assay IC50” value stood at 15 nM and the “HTRF BACE1 activity assay IC50” value was 10 nM. The IC50 in experiment [4] stood at 10 nM.

B21: BACE018 (peptide)
peptide: Ac-KEESIYCRLMGLGCG-NH2
modifications: disulfide 7-14 (inferred)
notes: also called BACE-18
Regarding B21, in experiment [3], the “Caliper (MCE) BACE1 activity assay IC50” value came to 54 nM and the “HTRF BACE1 activity assay IC50” value came to 77 nM. For the same molecule, in experiment [4], the IC50 was 102 nM.

B22: BMS2 (peptide)
peptide: Ac-ALYPYFLPISAK-NH2
notes: also called Peptide 2 of Kornacker et al
For B22, the “Caliper … (rate increased)” value in experiment [3] came out at 26400 nM. The IC50 in experiment [4] is more than 10000 nM.

B23: BACE060 (peptide)
peptide: Ac-ESMYC[Cit]LLGIGCG-NH2
modifications: disulfide 5-12 (inferred)
notes: also called BACE030 with Arg to citrulline
For B23, in experiment [3], the “Caliper (MCE) BACE1 activity assay IC50” value was 772 nM. In addition, the IC50 in experiment [4] worked out at 2300 nM.

B24: BACE010 (Ac-SGPYFIEYMSAV-NH2) (peptide)
peptide: Ac-SGPYFIEYMSAV-NH2
notes: also called BACE10
Turning to B24, the “Caliper … (rate increased)” value in experiment [3] worked out at 2200 nM. For the same molecule, the IC50 in experiment [4] is more than 10000 nM.

B25: phage-displayed peptide BACE020 (SEQ ID NO 16) (peptide)
chain: NEESMYCRLLGIGCG
modifications: disulfide 7-14; also: displayed on M13 phage as N-terminal fusion to the coat protein
notes: as for B1
Take B25: the signal/noise ratio in experiment [1] is more than 20. Further, the “fold improvement of signal/noise ratio” value in experiment [2] was more than 5 fold.

B26: BACE020 (peptide)
peptide: Ac-NEESMYCRLLGIGCG-NH2
modifications: disulfide 7-14
SMILES: CC[C@H](C)[C@@H]1NC(=O)CNC(=O)[C@H](CC(C)C)NC(=O)[C@H](CC(C)C)NC(=O)[C@H](CCCNC(=N)N)NC(=O)[C@@H](NC(=O)[C@H](Cc2ccc(O)cc2)NC(=O)[C@H](CCSC)NC(=O)[C@H](CO)NC(=O)[C@H](CCC(=O)O)NC(=O)[C@H](CCC(=O)O)NC(=O)[C@H](CC(N)=O)NC(C)=O)CSSC[C@@H](C(=O)NCC(N)=O)NC(=O)CNC1=O
notes: also called BACE20; BACE-20
On to B26, for which, in experiment [3], the “Caliper (MCE) BACE1 activity assay IC50” value is 11 nM and the “HTRF BACE1 activity assay IC50” value was 12 nM. Further, in experiment [4], the IC50 worked out at 11 nM.
